Measurements: patent US20080014191A1

Columns and labels:
[1] = biological target: wild-type cystic fibrosis transmembrane conductance regulator (CFTR) (Homo sapiens (Human)) (UniProt P13569); assay: CFTR co-IP, MudPIT MS; cell line not stated
[2] = biological target: ΔF508 CFTR (Homo sapiens (Human)) (UniProt P13569); assay: CFTR co-IP, MudPIT MS; ΔF508
[3] = biological target: wild-type cystic fibrosis transmembrane conductance regulator (CFTR) (Homo sapiens (Human)) (UniProt P13569); assay: CFTR co-IP, MudPIT MS; BHK wt
[4] = biological target: ΔF508 CFTR (Homo sapiens (Human)) (UniProt P13569); assay: CFTR co-IP, MudPIT MS; BHK ΔF508

Sequence of wild-type cystic fibrosis transmembrane conductance regulator (CFTR) (Homo sapiens (Human)) (P13569 whole entry): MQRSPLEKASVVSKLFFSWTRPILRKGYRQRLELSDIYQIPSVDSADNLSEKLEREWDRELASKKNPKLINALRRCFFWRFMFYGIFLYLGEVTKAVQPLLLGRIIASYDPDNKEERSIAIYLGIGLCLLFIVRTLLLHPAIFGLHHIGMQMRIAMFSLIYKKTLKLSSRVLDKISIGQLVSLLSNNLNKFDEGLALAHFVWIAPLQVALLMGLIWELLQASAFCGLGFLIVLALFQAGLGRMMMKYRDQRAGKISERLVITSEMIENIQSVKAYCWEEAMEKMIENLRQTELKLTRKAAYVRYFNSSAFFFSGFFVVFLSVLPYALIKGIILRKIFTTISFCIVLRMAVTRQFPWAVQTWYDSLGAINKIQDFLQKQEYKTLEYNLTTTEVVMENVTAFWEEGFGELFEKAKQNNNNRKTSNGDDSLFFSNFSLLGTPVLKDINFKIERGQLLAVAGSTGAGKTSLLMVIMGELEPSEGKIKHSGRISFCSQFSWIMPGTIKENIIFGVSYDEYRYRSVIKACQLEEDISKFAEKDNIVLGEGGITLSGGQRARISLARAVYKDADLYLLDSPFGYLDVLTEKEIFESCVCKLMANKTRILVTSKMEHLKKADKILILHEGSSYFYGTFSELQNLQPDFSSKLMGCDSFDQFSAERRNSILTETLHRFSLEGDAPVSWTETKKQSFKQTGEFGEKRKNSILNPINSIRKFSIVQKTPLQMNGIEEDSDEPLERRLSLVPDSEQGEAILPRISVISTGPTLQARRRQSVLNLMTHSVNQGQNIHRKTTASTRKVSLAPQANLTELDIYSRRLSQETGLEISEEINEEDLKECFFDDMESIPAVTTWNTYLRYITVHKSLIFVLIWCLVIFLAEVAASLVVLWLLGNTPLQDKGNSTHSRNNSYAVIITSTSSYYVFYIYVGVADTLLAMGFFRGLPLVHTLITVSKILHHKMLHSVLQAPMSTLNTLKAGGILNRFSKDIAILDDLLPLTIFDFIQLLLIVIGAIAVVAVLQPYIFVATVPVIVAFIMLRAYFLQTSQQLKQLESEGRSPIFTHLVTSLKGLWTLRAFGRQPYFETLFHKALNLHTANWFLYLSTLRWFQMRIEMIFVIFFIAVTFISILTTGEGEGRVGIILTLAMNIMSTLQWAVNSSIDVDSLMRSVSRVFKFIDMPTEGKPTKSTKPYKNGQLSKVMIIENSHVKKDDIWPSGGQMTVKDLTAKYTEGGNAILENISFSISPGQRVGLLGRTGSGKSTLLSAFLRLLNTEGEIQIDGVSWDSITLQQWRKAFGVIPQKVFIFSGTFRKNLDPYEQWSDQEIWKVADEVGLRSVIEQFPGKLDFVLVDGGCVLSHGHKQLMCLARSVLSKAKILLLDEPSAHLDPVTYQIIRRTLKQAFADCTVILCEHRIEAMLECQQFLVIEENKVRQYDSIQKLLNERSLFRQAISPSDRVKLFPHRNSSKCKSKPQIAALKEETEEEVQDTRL
Sequence of ΔF508 CFTR (Homo sapiens (Human)) (P13569 other isoform, or with tags, fused parts or gaps mutant limits assumed): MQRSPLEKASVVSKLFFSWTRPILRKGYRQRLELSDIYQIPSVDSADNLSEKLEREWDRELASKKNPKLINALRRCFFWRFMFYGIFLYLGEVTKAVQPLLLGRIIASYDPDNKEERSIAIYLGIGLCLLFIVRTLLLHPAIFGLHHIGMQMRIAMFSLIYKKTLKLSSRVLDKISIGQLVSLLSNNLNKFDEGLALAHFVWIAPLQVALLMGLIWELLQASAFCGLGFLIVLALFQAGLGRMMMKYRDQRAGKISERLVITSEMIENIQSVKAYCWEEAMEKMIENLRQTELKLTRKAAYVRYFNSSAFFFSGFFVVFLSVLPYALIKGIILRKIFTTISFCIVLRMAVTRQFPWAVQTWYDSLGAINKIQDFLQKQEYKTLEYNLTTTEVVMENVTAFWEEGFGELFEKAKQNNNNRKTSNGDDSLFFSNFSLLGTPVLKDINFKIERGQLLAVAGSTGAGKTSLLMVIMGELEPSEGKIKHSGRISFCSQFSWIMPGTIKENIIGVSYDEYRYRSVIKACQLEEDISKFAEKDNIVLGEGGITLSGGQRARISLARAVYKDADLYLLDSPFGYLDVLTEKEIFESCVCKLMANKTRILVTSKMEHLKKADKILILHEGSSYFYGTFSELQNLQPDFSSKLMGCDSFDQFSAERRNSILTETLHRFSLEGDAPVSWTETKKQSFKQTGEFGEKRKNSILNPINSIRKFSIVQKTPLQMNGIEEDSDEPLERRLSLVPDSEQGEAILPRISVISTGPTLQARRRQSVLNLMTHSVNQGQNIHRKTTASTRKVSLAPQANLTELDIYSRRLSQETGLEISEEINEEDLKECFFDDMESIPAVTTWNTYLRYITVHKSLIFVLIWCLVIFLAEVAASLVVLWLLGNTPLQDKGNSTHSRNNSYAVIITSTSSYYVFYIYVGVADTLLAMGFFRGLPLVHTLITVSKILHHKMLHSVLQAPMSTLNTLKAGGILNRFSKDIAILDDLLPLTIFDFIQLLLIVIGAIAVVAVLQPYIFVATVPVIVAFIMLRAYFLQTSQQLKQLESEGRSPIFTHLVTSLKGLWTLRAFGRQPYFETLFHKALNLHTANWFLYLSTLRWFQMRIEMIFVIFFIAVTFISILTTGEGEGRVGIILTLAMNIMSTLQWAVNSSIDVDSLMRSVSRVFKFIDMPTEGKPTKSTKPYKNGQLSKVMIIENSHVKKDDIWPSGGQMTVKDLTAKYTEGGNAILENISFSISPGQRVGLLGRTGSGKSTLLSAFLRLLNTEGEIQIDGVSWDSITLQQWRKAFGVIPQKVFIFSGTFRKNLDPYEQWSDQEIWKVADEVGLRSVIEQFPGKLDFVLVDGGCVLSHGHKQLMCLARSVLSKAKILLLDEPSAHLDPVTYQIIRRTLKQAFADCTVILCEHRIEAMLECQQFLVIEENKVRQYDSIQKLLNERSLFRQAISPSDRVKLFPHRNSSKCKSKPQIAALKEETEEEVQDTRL

Substance | % sequence coverage [1] [%] | total peptide spectra [1] [spectra] | unique peptide spectra [1] [spectra] | % sequence coverage [3] [%] | total spectra [3] [spectra] | unique spectra [3] [spectra] | % sequence coverage [4] [%] | total spectra [4] [spectra] | unique spectra [4] [spectra] | other results
flotillin 2 (from UniProt Q60634 2-428) | 5 | 2 | 2 |  |  |  |  |  |  | 
proteasome, alpha type 2 (from UniProt P49722 2-234) |  |  |  |  |  |  |  |  |  | % sequence coverage [2]: 17%; total peptide spectra [2]: 5 spectra; unique peptide spectra [2]: 2 spectra
sortilin-related receptor L (SORL1) (from UniProt Q92673 82-2214) | 1 | 12 | 1 |  |  |  |  |  |  | 
clathrin, light chain (from UniProt O08585 1-235) | 13 | 11 | 3 |  |  |  |  |  |  | 
Hsp90, alpha (from UniProt P07900 2-732) |  |  |  | 6 | 5 | 4 | 39 | 37 | 24 | 
Hsc70 (from UniProt P63018 2-646) |  |  |  | 48 | 132 | 39 |  |  |  | 
GRP75 (from UniProt P38647 47-679) |  |  |  |  |  |  | 34 | 40 | 23 | 
Calumenin (from UniProt O43852 20-315) |  |  |  | 7 | 3 | 3 |  |  |  | 
TCP1 (from UniProt P11983 1-556) |  |  |  | 9 | 5 | 3 | 10 | 5 | 3 | 
BAG-2 (from UniProt O95816 2-211) |  |  |  | 10 | 2 | 2 | 28 | 20 | 7 | 
cyclophilin B (from UniProt P23284 34-216) |  |  |  |  |  |  | 13 | 2 | 2 | 
βCOP (from UniProt P53618 2-953) | 5 | 2 | 2 |  |  |  |  |  |  | 
proteasome, alpha type 5 (from UniProt Q9Z2U1 1-241) |  |  |  |  |  |  |  |  |  | % sequence coverage [2]: 23%; total peptide spectra [2]: 3 spectra; unique peptide spectra [2]: 3 spectra
RalBP1 associated Eps domain containing protein (Reps1) (from UniProt O54916 1-795) | 6 | 2 | 2 |  |  |  |  |  |  | 
proteasome 26S, ATPase 3 (from UniProt O88685 1-442) |  |  |  |  |  |  |  |  |  | % sequence coverage [2]: 8%; total peptide spectra [2]: 3 spectra; unique peptide spectra [2]: 2 spectra
Aha1, activator of heat shock 90 kDa protein ATPase homolog 1 (from UniProt O95433 1-338) |  |  |  | 34 | 20 | 10 | 15 | 15 | 7 | 
Hsp70-2 (from UniProt P54652 1-639) |  |  |  | 8 | 17 | 7 | 16 | 57 | 23 | 
Hsp90β (from UniProt P11499 2-724) |  |  |  | 21 | 18 | 11 | 36 | 49 | 24 | 
p23 (from UniProt Q15185 1-160) |  |  |  |  |  |  | 16 | 2 | 2 | 
BAG-3 (from UniProt Q9JLV1 2-577) |  |  |  |  |  |  | 12 | 5 | 4 | 

Substance | % sequence coverage [1] [%] | total peptide spectra [1] [spectra] | unique peptide spectra [1] [spectra] | % sequence coverage [3] [%] | total spectra [3] [spectra] | unique spectra [3] [spectra] | % sequence coverage [4] [%] | total spectra [4] [spectra] | unique spectra [4] [spectra] | other results
Hsc-Hsp70/Hsp90 organizing protein (HOP) (from UniProt Q60864 1-543) |  |  |  |  |  |  | 11 | 4 | 4 | 
Hsp105 (from UniProt Q61699 2-858) |  |  |  |  |  |  | 10 | 6 | 5 | 
Reticulocalbin 2 (from UniProt Q8BP92 26-320) |  |  |  | 22 | 12 | 6 | 9 | 4 | 3 | 
Hsp70B′ (from UniProt P17066 1-643) |  |  |  | 3 | 5 | 3 | 10 | 14 | 8 | 
DnaJ-like protein (from UniProt P63036 1-394) |  |  |  |  |  |  | 34 | 35 | 11 | 
Hsp40-A2 (Hdj3) (from UniProt O60884 1-409) |  |  |  | 28 | 16 | 6 | 32 | 19 | 9 | 
sorting nexin 4 (from UniProt O95219 1-450) | 3 | 5 | 3 |  |  |  |  |  |  | 
FKBP38 (from UniProt O35465 1-402) |  |  |  |  |  |  | 17 | 5 | 4 | 
CLCA1 (from UniProt A8K7I4 22-914) | 2 | 2 | 2 |  |  |  |  |  |  | 
enthoprotin (from UniProt Q14677 1-625) | 9 | 5 | 4 |  |  |  |  |  |  | 
disabled homolog 2 (Dab2) (from UniProt P98078 2-766) | 5 | 3 | 3 |  |  |  |  |  |  | 
Hsp40-A1 (Hdj2) (from UniProt P31689 1-394) |  |  |  | 40 | 25 | 13 | 31 | 33 | 10 | 
VCP (RefSeq NM_009503) (from UniProt Q01853 2-806) | 7 | 2 | 2 |  |  |  |  |  |  | 
Cdc37 (from UniProt Q61081 1-379) |  |  |  |  |  |  | 8 | 3 | 2 | 
ARF4 (from UniProt P61750 2-180) | 16 | 4 | 2 |  |  |  |  |  |  | 
sorting nexin 9 (from UniProt Q9Y5X1 1-595) | 5 | 2 | 2 |  |  |  |  |  |  | 
Reticulocalbin (from UniProt Q05186 24-325) |  |  |  | 50 | 19 | 14 | 27 | 8 | 5 | 
Hsp70-1A (from UniProt P0DMV8 2-641) |  |  |  | 8 | 6 | 4 | 19 | 20 | 12 | 
GRP78 (from UniProt P20029 20-655) |  |  |  | 33 | 37 | 17 | 40 | 85 | 30 | 
VPS 4A (from UniProt Q9UN37 1-437) | 5 | 2 | 2 |  |  |  |  |  |  | 
